Data: patent US20070254831A1 (published 2007)
Read-outs that look alike come from different tables or passages of the source. Numbered stars: 1 amine (or outer) side, 2 acyl side, 3 side chain; on linkers, the order of the positions; unused ones are H or OH. Bridge positions count the residues as written; N and C are the ends. Square brackets hold non-standard residues; d marks the D form. Ends that are not written are not given here. X2 = (3R)‑3‑amino‑1‑carboxymethyl‑valerolactam, O=C1[C@H](N[*:1])CCCN1CC(=O)[*:2]; 3‑amino‑2‑oxo‑1‑piperidine‑acetic acid = dipeptide mimetic in place of Gly-Gly; NMeL = CN[C@@H](CC(C)C)C(=O)O; Pen = CC(C)(S)[C@H](N)C(=O)O; NMeA = CN[C@@H](C)C(=O)O

Assays:
soluble human FcRn [1] = molecular target: T1, soluble human FcRn (human, UniProt P55899 24-297; P61769 21-119, biotinylated (Sulfo-NHS-LC-Biotin) in the ELISA; amine-coupled to CM5 chip in SPR); assay: ELISA, competitor human IgG
T1 construct: also called shFcRn; biotinylated shFcRn
Method: (§1) The wells were coated with 100 μl/well of 1 μg/ml biotinylated-shFcRn in Buffer A. The plate was sealed and incubated at 37° C. for 2 hours. Afterwards, the plate washed with 200 μl/well of Buffer B (Buffer B: 100 mM MES pH 6, 150 mM NaCl, 0.5% BSA IgG-free (Jackson ImmunoResearch, West Grove, Pa.), 0.05% Tween-20). […] To allow for mixing, the plate was rocked for 2 minutes, sealed and incubated at 37° C. for 2 hours. […] The plate was covered, incubated for 30 minutes at room temperature and washed 4 times with 200 μl/well of ice-cold buffer B. SureBlue TMB substrate solution (100 μl/well, KPL, Gaithersburg, Md.) was added and the plate was allowed to incubate at room temperature until color developed, which took 5 to 10 minutes. Once color developed, 100 μl/well of TMB stop solution (KPL, Gaithersburg, Md.) was added and the absorbance was measured at 450 nm. The data was plotted as absorbance vs. peptide concentration to derive the inhibitory concentration 50% (IC₅₀) values.

soluble human FcRn [2] = molecular target: T1, soluble human FcRn; assay: ELISA, competitor human IgG; remark: listed apart in the source
Method: as §1

soluble human FcRn [3] = molecular target: T1, soluble human FcRn; assay: ELISA, competitor human IgG; remark: listed apart in the source
Method: as §1

soluble human FcRn [4] = molecular target: T1, soluble human FcRn; assay: SPR, pH 6
Method: (§2) The following steps were performed to cross-link soluble human or cynomolgus FcRn to the dextran surface of a CM5 sensor chip (Biacore AB, Uppsala, Sweden) by an amine coupling reaction involving 1-ethyl-(3-dimethylaminopropyl)-carbodiimide hydrochloride (EDC) (Biacore AB, Uppsala, Sweden) and N-hydroxysuccinimide (NHS) (Biacore AB, Uppsala, Sweden) as recommended by Biacore (BIAapplications Handbook, version AB, section 4.2, Biacore AB, Uppsala, Sweden). […] Residual sites on the FcRn flow cell were blocked with 1 M ethanolamine hydrochloride pH 8.5 (Biacore AB, Uppsala, Sweden). A control flow cell was blocked with ethanolamine for reference subtraction. For analysis of the monomeric peptides, FcRn was coated to a final density of 4000-5000 response units (RU). For analysis of the peptide dimers, FcRn was coated to a density of 2000-2500 RU. All SPR measurements were performed using a BIACORE 3000 Instrument (Biacore AB Uppsala, Sweden). For measurements done at either pH 6 or pH 7.4, experiments were performed in 50 mM phosphate, 100 mM sodium chloride, 0.01% surfactant P20 (Biacore AB, Uppsala, Sweden).
(§3) Ten, 2-fold dilutions of the peptide were injected over the FcRn-CM5 chip at a rate of 20 μl/min for 2 min. The peptide was dissociated from the chip for 2.5 minutes with buffer. Any remaining peptide was removed from the chip with a 30 second injection of HBS-P buffer (Biacore AB, Uppsala, Sweden) at a rate of 30 μl/min. Sensorgrams were generated and analyzed using BiaEval software version 3.1 (Biacore AB, Uppsala, Sweden). The equilibrium RU observed for each injection was plotted against concentration. The equilibrium KD values were derived by analysis of the plots using the steady state affinity model included in the BiaEval software.

soluble human FcRn [5] = molecular target: T1, soluble human FcRn; assay: SPR, pH 6; remark: listed apart in the source
Method: as §2, §3

soluble human FcRn [6] = molecular target: T1, soluble human FcRn; assay: ELISA, competitor human IgG; remark: listed apart in the source
Method: as §1

soluble human FcRn [7] = molecular target: T1, soluble human FcRn; assay: ELISA, competitor human IgG; remark: listed apart in the source
Method: as §1

soluble human FcRn [8] = molecular target: T1, soluble human FcRn; assay: ELISA, competitor human IgG; remark: listed apart in the source
Method: as §1

soluble human FcRn [9] = molecular target: T1, soluble human FcRn; assay: SPR, pH 6; remark: listed apart in the source
Method: as §2, §3

soluble human FcRn [10] = molecular target: T1, soluble human FcRn; assay: ELISA, competitor human IgG; remark: listed apart in the source
Method: as §1

soluble human FcRn [11] = molecular target: T1, soluble human FcRn; assay: SPR, pH 6; remark: listed apart in the source
Method: as §2, §3

soluble human FcRn [12] = molecular target: T1, soluble human FcRn; assay: ELISA, competitor human IgG; remark: listed apart in the source
Method: as §1

soluble human FcRn [13] = molecular target: T1, soluble human FcRn; assay: SPR, pH 6; remark: listed apart in the source
Method: as §2, §3

soluble human FcRn [14] = molecular target: T1, soluble human FcRn; assay: SPR, pH 6; remark: listed apart in the source
Method: as §2, §3

soluble human FcRn [15] = molecular target: T1, soluble human FcRn; assay: SPR, pH 7.4
Method: as §2, §3

soluble human FcRn [16] = molecular target: T1, soluble human FcRn; assay: ELISA, competitor human IgG; remark: listed apart in the source
Method: as §1

T1 sequence (P55899 24-297 limits assumed, chain 1 of 2): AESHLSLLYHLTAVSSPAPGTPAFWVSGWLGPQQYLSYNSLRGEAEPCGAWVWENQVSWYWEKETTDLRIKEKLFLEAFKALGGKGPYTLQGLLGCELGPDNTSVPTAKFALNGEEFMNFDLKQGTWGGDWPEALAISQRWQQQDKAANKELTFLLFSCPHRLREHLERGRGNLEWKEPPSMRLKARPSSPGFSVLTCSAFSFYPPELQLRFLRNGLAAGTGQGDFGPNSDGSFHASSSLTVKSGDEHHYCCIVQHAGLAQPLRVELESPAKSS
T1 sequence (P61769 21-119 limits assumed, chain 2 of 2): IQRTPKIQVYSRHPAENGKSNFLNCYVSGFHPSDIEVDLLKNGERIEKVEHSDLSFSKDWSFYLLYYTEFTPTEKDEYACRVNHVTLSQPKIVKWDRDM

B1: Peptide No. 99 (peptide)
peptide: RFXTGHFGGLYPC
modifications: Pen at 3; disulfide; C-terminal amide
IC50 (soluble human FcRn [1]): 2000 nM | IC50 (soluble human FcRn [2]): 2000 nM

B2: Peptide No. 63 (peptide)
peptide: QRFXTGHFGGLXPCNGP
modifications: Pen at 4; 4-amino-Phe at 12; disulfide; C-terminal amide
IC50 (soluble human FcRn [3]): 110 µM | Kd (soluble human FcRn [4]): 34 µM

B3: Peptide No. 228 (peptide)
peptide: RF[Pen][NMeA]GHF[X2][NMeL]YPC-NH2
modifications: disulfide 3-12; N-terminus assumed
SMILES: CC(C)C[C@H]1C(=O)N[C@@H](Cc2ccc(O)cc2)C(=O)N2CCC[C@H]2C(=O)N[C@H](C(N)=O)CSSC(C)(C)[C@H](NC(=O)[C@H](Cc2ccccc2)NC(=O)[C@@H](N)CCCNC(=N)N)C(=O)N(C)[C@@H](C)C(=O)NCC(=O)N[C@@H](Cc2c[nH]cn2)C(=O)N[C@@H](Cc2ccccc2)C(=O)N[C@@H]2CCCN(CC(=O)N1C)C2=O
Kd (soluble human FcRn [5]): 145 nM | IC50 (soluble human FcRn [2]): 1100 nM

B4: Peptide No. 127 (peptide)
peptide: QRFDTGHFGGLYPKN-NH2
modifications: lactam 4-14; N-terminus assumed
SMILES: CC(C)C[C@@H]1NC(=O)CNC(=O)CNC(=O)[C@H](Cc2ccccc2)NC(=O)[C@H](Cc2c[nH]cn2)NC(=O)CNC(=O)[C@H]([C@@H](C)O)NC(=O)[C@@H](NC(=O)[C@H](Cc2ccccc2)NC(=O)[C@H](CCCNC(=N)N)NC(=O)[C@@H](N)CCC(N)=O)CC(=O)NCCCC[C@@H](C(=O)N[C@@H](CC(N)=O)C(N)=O)NC(=O)[C@@H]2CCCN2C(=O)[C@H](Cc2ccc(O)cc2)NC1=O
IC50 (soluble human FcRn [6]): 7.6 µM

B5: Peptide No. 287 (peptide)
peptide: RFXTGHFGGLYPCG
modifications: Pen at 3; Sar at 9; NMeLeu at 10; intrachain disulfide; C-termini joined on a branching Lys
notes: C-terminally linked dimer
IC50 (soluble human FcRn [7]): 20 nM

B6: Peptide No. 205 (peptide)
peptide: RFXTGHFXLYPC
modifications: Pen at 3; X at 8 = 3(S)-3-amino-2-oxo-1-azepine acetic acid; disulfide; C-terminal amide
Kd (soluble human FcRn [5]): 103 nM | IC50 (soluble human FcRn [2]): 640 nM

B7: Peptide No. 179 (peptide)
peptide: RFXTGHFXLYPC
modifications: Pen at 3; X at 8 = 3-amino-2-oxo-1-piperidine-acetic acid (drawing CHEM-US-00081); disulfide; C-terminal amide
Kd (soluble human FcRn [5]): 670 nM | IC50 (soluble human FcRn [2]): 7200 nM

B8: Peptide No. 107 (peptide)
peptide: QRFDTGHFGGLYKNGP-NH2
modifications: lactam 4-13; N-terminus assumed
SMILES: CC(C)C[C@@H]1NC(=O)CNC(=O)CNC(=O)[C@H](Cc2ccccc2)NC(=O)[C@H](Cc2c[nH]cn2)NC(=O)CNC(=O)[C@H]([C@@H](C)O)NC(=O)[C@@H](NC(=O)[C@H](Cc2ccccc2)NC(=O)[C@H](CCCNC(=N)N)NC(=O)[C@@H](N)CCC(N)=O)CC(=O)NCCCC[C@@H](C(=O)N[C@@H](CC(N)=O)C(=O)NCC(=O)N2CCC[C@H]2C(N)=O)NC(=O)[C@H](Cc2ccc(O)cc2)NC1=O
IC50 (soluble human FcRn [6]): > 125 µM

B9: Peptide No. 185 (peptide)
peptide: RFVTGHFXLYPA
modifications: X at 8 = 3-amino-N-1-carboxymethyl-2,3,4,5-tetrahydro-1H-[1]-benzazepine-2-one (drawing CHEM-US-00097); linear; C-terminal amide
IC50 (soluble human FcRn [8]): 57 µM | Kd (soluble human FcRn [9]): 3.1 µM

B10: Peptide No. 97 (peptide)
peptide: QRYXTGHFGGLYPCNGP
modifications: Pen at 4; disulfide; C-terminal amide
IC50 (soluble human FcRn [10]): 2400 nM

B11: Peptide No. 101 (peptide)
peptide: QRF[Pen]TGHFGGIYPCNGP-NH2
modifications: disulfide 4-14; N-terminus assumed
SMILES: CC[C@H](C)[C@@H]1NC(=O)CNC(=O)CNC(=O)[C@H](Cc2ccccc2)NC(=O)[C@H](Cc2c[nH]cn2)NC(=O)CNC(=O)[C@H]([C@@H](C)O)NC(=O)[C@@H](NC(=O)[C@H](Cc2ccccc2)NC(=O)[C@H](CCCNC(=N)N)NC(=O)[C@@H](N)CCC(N)=O)C(C)(C)SSC[C@@H](C(=O)N[C@@H](CC(N)=O)C(=O)NCC(=O)N2CCC[C@H]2C(N)=O)NC(=O)[C@@H]2CCCN2C(=O)[C@H](Cc2ccc(O)cc2)NC1=O
Kd (soluble human FcRn [11]): 340 nM | IC50 (soluble human FcRn [12]): 3.4 µM

B12: Peptide No. 195 (peptide)
peptide: QRFXGGHFGGLYPCNGP
modifications: Pen at 4; disulfide; C-terminal amide
Kd (soluble human FcRn [13]): 760 nM

B13: Peptide No. 98 (peptide)
peptide: QRWXTGHFGGLYPCNGP
modifications: Pen at 4; disulfide; C-terminal amide
IC50 (soluble human FcRn [10]): 1500 nM

B14: Peptide No. 115 (peptide)
peptide: QRF[Pen]TGHFGGFYPCNGP-NH2
modifications: disulfide 4-14; N-terminus assumed
SMILES: C[C@@H](O)[C@@H]1NC(=O)[C@@H](NC(=O)[C@H](Cc2ccccc2)NC(=O)[C@H](CCCNC(=N)N)NC(=O)[C@@H](N)CCC(N)=O)C(C)(C)SSC[C@@H](C(=O)N[C@@H](CC(N)=O)C(=O)NCC(=O)N2CCC[C@H]2C(N)=O)NC(=O)[C@@H]2CCCN2C(=O)[C@H](Cc2ccc(O)cc2)NC(=O)[C@H](Cc2ccccc2)NC(=O)CNC(=O)CNC(=O)[C@H](Cc2ccccc2)NC(=O)[C@H](Cc2c[nH]cn2)NC(=O)CNC1=O
Kd (soluble human FcRn [11]): 400 nM | IC50 (soluble human FcRn [12]): 4.1 µM

B15: Peptide No. 131 (peptide)
peptide: QRFXTGHFGGLYPENGP
modifications: Orn at 4; side-chain lactam bridge Orn 4-Glu 14; C-terminal amide
IC50 (soluble human FcRn [6]): 30 µM

B16: Peptide No. 197 (peptide)
peptide: RFXTGHFXLYPC
modifications: Pen at 3; X at 8 = 5,5-bicyclic dipeptide mimic (drawing CHEM-US-00085); disulfide; C-terminal amide
Kd (soluble human FcRn [5]): 990 nM

B17: Peptide No. 288 (peptide)
peptide: RFXTGHFGGLYPCGG
modifications: Pen at 3; Sar at 9; NMeLeu at 10; intrachain disulfide; C-termini joined on a branching Lys
notes: C-terminally linked dimer
IC50 (soluble human FcRn [7]): 16 nM

B18: Peptide No. 279 (peptide)
peptide: RFXTGHFGGLYPC
modifications: Pen at 3; Sar at 9; NMeLeu at 10; intrachain disulfide; C-terminal amide; N-termini joined by Bis-dPEG6 diacid linker
notes: N-terminally linked dimer
IC50 (soluble human FcRn [7]): 7 nM

B19: SEQ ID NO:31 (peptide)
peptide: QRFCTGHFAGLYPCNGP-NH2
modifications: disulfide 4-14 (inferred)
Kd (soluble human FcRn [14]): 230 µM | Kd (soluble human FcRn [15]): 200 µM | IC50 (soluble human FcRn [16]): > 125 µM

B20: SEQ ID NO:33 (peptide)
peptide: QRFCTGHFGGAYPCNGP-NH2
modifications: disulfide 4-14 (inferred)
Kd (soluble human FcRn [14]): 26 µM | Kd (soluble human FcRn [15]): 81 µM | IC50 (soluble human FcRn [16]): 107 µM

B21: SEQ ID NO:35 (peptide)
peptide: QRFCTGHFGGLYACNGP-NH2
modifications: disulfide 4-14 (inferred)
Kd (soluble human FcRn [15]): 100 µM

B22: Peptide No. 96 (peptide)
peptide: QRFXTGHFGGLYPCNGP
modifications: D-Phe at 3; Pen at 4; disulfide; C-terminal amide
IC50 (soluble human FcRn [10]): 11400 nM

B23: Peptide No. 144 (peptide)
peptide: RFXTGHFGPLYPCNGP
modifications: Pen at 3; D-Pro at 9; disulfide; C-terminal amide
IC50 (soluble human FcRn [1]): 1500 nM

B24: Peptide No. 201 (peptide)
peptide: QRFXTGHFGGLYPCNGP
modifications: Pen at 4; intrachain disulfide; C-terminal amide; N-termini joined by ethylene glycol-bis(succinic acid) linker
notes: N-terminally linked dimer
IC50 (soluble human FcRn [7]): 26 nM

B25: Peptide No. 182 (peptide)
peptide: RFVTGHFXLYPA
modifications: X at 8 = 3-amino-2-oxo-1-piperidine-acetic acid (drawing CHEM-US-00094); linear; C-terminal amide
IC50 (soluble human FcRn [8]): 38 µM

B26: Peptide No. 280 (peptide)
peptide: RFXTGHFGGLYPC
modifications: not fully specified; Pen at 3; Sar at 9; NMeLeu at 10; intrachain disulfide; C-termini joined on the two amines of a branching Lys
notes: C-terminally linked dimer
IC50 (soluble human FcRn [7]): 25 nM

B27: Peptide No. 67 (peptide)
peptide: QRFXTGHFGGLXPCNGP
modifications: Pen at 4; 3-pyridylAla at 12; disulfide; C-terminal amide
IC50 (soluble human FcRn [3]): 92 µM | Kd (soluble human FcRn [4]): 34 µM

B28: Peptide No. 178 (peptide)
peptide: RFXTGHFXLYPC
modifications: Pen at 3; X at 8 = 3-amino-2-oxo-1-piperidine-acetic acid (drawing CHEM-US-00080); disulfide; C-terminal amide
Kd (soluble human FcRn [5]): 160 nM | IC50 (soluble human FcRn [2]): 660 nM

B29: Peptide No. 237 (peptide)
peptide: RFXTGHFGGWYPC
modifications: Pen at 3; disulfide; C-terminal amide
Kd (soluble human FcRn [11]): 140 nM | IC50 (soluble human FcRn [12]): 2.8 µM

B30: Peptide No. 191 (peptide)
peptide: QRFVTGHF[3‑amino‑2‑oxo‑1‑piperidine‑acetic acid]WYPINGP-NH2
modifications: also: further groups not given here
Kd (soluble human FcRn [9]): 333 µM
